# Results reported in patent publication US20230322924A1 (Janssen / Centocor, published 2023).
# Changes are numbered by the printed parent chain. In names and notes the source's numbering stands.
# T1: TMEW1 (TMEFF2-FL-ECD-His-Avitag) (human, UniProt Q9UIK5 41-320)
# T1 construct: Human TMEFF2 ECD with C-terminal G3S, 6xHis tag and Avi-tag, all in the entry; also called TMEFF2 ECD
# T1 sequence: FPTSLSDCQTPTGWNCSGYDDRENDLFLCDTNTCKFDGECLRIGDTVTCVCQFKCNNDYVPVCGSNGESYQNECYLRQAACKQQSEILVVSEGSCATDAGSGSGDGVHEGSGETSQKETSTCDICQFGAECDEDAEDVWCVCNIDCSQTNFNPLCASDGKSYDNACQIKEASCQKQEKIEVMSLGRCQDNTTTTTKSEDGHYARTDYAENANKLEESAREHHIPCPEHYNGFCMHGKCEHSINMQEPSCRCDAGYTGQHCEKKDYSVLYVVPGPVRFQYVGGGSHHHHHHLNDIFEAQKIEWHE
# T2: TMEW19 (spTMEFF2(230-320)G3S-H6) (human, UniProt Q9UIK5 230-320)
# T2 construct: Residues 230-320 of human TMEFF2 with G3S and 6xHis tag, all in the entry; also called TMEFF2 membrane proximal region; MP
# T2 sequence: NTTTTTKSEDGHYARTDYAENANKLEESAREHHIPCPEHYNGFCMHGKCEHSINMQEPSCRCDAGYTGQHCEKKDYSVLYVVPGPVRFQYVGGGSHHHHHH
# B1: PS3B83 (bispecific antibody, human IgG4 S228P, kappa, lambda, F234A L235A)
# heavy 1: not shown
# light 1: not shown
# heavy 2: QVQLQQSGPRLVRPSQTLSLTCAISGDSVFNNNAAWSWIRQSPSRGLEWLGRTYYRSKWLYDYAVSVKSRITVNPDTSRNQFTLQLNSVTPEDTALYYCARGYSSSFDYWGQGTLVTVSSASTKGPSVFPLAPCSRSTSESTAALGCLVKDYFPEPVTVSWNSGALTSGVHTFPAVLQSSGLYSLSSVVTVPSSSLGTKTYTCNVDHKPSNTKVDKRVESKYGPPCPPCPAPEAAGGPSVFLFPPKPKDTLMISRTPEVTCVVVDVSQEDPEVQFNWYVDGVEVHNAKTKPREEQFNSTYRVVSVLTVLHQDWLNGKEYKCKVSNKGLPSSIEKTISKAKGQPREPQVYTLPPSQEEMTKNQVSLTCLVKGFYPSDIAVEWESNGQPENNYKTTPPVLDSDGSFLLYSKLTVDKSRWQEGNVFSCSVMHEALHNHYTQKSLSLSLGK
# light 2: QSALTQPASVSGSPGQSITISCTGTSSNIGTYKFVSWYQQHPDKAPKVLLYEVSKRPSGVSSRFSGSKSGNTASLTISGLQAEDQADYHCVSYAGSGTLLFGGGTKLTVLGQPKAAPSVTLFPPSSEELQANKATLVCLISDFYPGAVTVAWKADSSPVKAGVETTTPSKQSNNKYAASSYLSLTPEQWKSHRSYSCQVTHEGSTVEKTVAPTECS
# notes: IgG4 PAA; also called PSMB363 x CD3B376
# B2: PS3B85 (bispecific antibody, human IgG4 S228P, kappa, lambda, F234A L235A)
# heavy 1: not shown
# light 1: not shown
# heavy 2: B1 heavy 2
# light 2: B1 light 2
# notes: IgG4 PAA; also called PSMB345 x CD3B376
# B3: PS3B86 (bispecific antibody, human IgG4 S228P, kappa, lambda, F234A L235A)
# heavy 1: not shown
# light 1: not shown
# heavy 2: B1 heavy 2
# light 2: B1 light 2
# notes: IgG4 PAA; also called PSMB346 x CD3B376
# B4: PS3B27 (bispecific antibody)
# chain 1: not shown
# chain 2: not shown
# chain 3: EVQLVESGGGLVQPGGSLRLSCAASGFTFNTYAMNWVRQAPGKGLEWVARIRSKYNNYATYYAASVKGRFTISRDDSKNSLYLQMNSLKTEDTAVYYCARHGNFGNSYVSWFAYWGQGTLVTVSSASTKGPSVFPLAPCSRSTSESTAALGCLVKDYFPEPVTVSWNSGALTSGVHTFPAVLQSSGLYSLSSVVTVPSSSLGTKTYTCNVDHKPSNTKVDKRVESKYGPPCPPCPAPEAAGGPSVFLFPPKPKDTLMISRTPEVTCVVVDVSQEDPEVQFNWYVDGVEVHNAKTKPREEQFNSTYRVVSVLTVLHQDWLNGKEYKCKVSNKGLPSSIEKTISKAKGQPREPQVYTLPPSQEEMTKNQVSLTCLVKGFYPSDIAVEWESNGQPENNYKTTPPVLDSDGSFLLYSKLTVDKSRWQEGNVFSCSVMHEALHNHYTQKSLSLSLGK
# chain 4: QTVVTQEPSLTVSPGGTVTLTCRSSTGAVTTSNYANWVQQKPGQAPRGLIGGTNKRAPGTPARFSGSLLGGKAALTLSGVQPEDEAEYYCALWYSNLWVFGGGTKLTVLGQPKAAPSVTLFPPSSEELQANKATLVCLISDFYPGAVTVAWKADSSPVKAGVETTTPSKQSNNKYAASSYLSLTPEQWKSHRSYSCQVTHEGSTVEKTVAPTECS
# B5: PS3B60 (bispecific antibody, human IgG4 S228P, kappa, F234A L235A)
# heavy: not shown
# light: not shown
# VH: EVQLVESGGGLVQPGGSLRLSCAASGFTFNTYAMNWVRQAPGKGLEWVARIRSKYNNYATYYAASVKGRFTISRDDSKNSLYLQMNSLKTEDTAVYYCARHGNFGNSYVSWFAYWGQGTLVTVSS
# VL: QTVVTQEPSLTVSPGGTVTLTCRSSTGAVTTSNYANWVQQKPGQAPRGLIGGTNKRAPGTPARFSGSLLGGKAALTLSGVQPEDEAEYYCALWYSNLWVFGGGTKLTVL
# notes: IgG4 PAA; CD3 arm with F405L, R409K; also called PSMB344 x CD3B219
# B6: PS3B63 (bispecific antibody, human IgG4 S228P, kappa, F234A L235A)
# heavy: not shown
# light: not shown
# VH: B5 VH
# VL: B5 VL
# notes: IgG4 PAA; CD3 arm with F405L, R409K; also called PSMB347 x CD3B219
# B7: PS3B71 (bispecific antibody, human IgG4 S228P, kappa, F234A L235A)
# heavy: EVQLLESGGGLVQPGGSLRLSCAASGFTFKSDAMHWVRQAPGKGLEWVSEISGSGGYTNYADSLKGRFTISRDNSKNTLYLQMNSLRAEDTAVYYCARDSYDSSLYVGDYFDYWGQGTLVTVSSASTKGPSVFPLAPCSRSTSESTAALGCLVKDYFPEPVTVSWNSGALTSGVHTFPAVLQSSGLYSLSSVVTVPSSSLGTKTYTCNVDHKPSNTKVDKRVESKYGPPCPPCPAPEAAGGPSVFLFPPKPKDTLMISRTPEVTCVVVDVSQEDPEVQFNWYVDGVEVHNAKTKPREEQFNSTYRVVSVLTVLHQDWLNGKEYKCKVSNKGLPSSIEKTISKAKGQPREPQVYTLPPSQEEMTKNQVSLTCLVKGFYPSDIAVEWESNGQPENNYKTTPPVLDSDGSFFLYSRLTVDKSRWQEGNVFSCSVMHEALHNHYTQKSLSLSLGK
# light: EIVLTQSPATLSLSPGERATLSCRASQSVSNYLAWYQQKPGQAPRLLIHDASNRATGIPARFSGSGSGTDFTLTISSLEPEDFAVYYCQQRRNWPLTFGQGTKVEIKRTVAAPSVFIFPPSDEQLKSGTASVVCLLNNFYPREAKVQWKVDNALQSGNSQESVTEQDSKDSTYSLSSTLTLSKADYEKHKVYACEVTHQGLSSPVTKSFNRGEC
# VH: B5 VH
# VL: B5 VL
# notes: IgG4 PAA; CD3 arm with F405L, R409K; also called PSMB359 x CD3B219
# B8: PS3B75 (bispecific antibody, human IgG4 S228P, kappa, F234A L235A)
# heavy: not shown
# light: not shown
# VH: B5 VH
# VL: B5 VL
# notes: IgG4 PAA; CD3 arm with F405L, R409K; also called PSMB363 x CD3B219
# B9: PS3B72 (bispecific antibody, human IgG4 S228P, kappa, F234A L235A)
# heavy: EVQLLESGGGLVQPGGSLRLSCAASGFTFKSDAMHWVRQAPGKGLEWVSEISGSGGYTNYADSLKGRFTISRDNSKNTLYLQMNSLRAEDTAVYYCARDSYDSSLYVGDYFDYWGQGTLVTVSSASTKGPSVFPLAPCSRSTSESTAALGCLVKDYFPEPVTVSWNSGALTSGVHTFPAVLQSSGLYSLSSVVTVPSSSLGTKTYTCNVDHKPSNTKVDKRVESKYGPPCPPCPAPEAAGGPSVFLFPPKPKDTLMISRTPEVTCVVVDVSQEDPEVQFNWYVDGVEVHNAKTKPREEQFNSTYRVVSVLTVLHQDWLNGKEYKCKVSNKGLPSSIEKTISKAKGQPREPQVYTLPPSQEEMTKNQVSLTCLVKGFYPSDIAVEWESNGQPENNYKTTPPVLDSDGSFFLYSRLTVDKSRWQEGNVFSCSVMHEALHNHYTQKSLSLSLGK
# light: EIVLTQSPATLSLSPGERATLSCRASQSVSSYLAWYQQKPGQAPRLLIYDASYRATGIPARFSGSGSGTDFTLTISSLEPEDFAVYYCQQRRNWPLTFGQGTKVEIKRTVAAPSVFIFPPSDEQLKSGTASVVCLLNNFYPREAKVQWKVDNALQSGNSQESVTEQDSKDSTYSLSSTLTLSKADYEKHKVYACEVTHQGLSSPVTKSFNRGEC
# VH: B5 VH
# VL: B5 VL
# notes: IgG4 PAA; CD3 arm with F405L, R409K; also called PSMB360 x CD3B219
# B10: PS3B62 (bispecific antibody, human IgG4 S228P, kappa, F234A L235A)
# heavy: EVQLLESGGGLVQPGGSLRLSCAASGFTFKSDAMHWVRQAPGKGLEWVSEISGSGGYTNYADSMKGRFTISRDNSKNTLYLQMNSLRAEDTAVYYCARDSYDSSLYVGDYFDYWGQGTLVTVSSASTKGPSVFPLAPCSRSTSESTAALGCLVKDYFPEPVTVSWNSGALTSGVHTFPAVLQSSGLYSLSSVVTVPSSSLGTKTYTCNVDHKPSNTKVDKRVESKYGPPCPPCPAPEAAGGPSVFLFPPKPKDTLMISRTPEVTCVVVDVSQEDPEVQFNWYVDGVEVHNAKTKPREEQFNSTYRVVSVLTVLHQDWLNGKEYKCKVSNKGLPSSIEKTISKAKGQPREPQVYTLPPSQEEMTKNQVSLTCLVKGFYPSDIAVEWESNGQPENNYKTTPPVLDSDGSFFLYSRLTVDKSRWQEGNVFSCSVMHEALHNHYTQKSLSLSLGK
# light: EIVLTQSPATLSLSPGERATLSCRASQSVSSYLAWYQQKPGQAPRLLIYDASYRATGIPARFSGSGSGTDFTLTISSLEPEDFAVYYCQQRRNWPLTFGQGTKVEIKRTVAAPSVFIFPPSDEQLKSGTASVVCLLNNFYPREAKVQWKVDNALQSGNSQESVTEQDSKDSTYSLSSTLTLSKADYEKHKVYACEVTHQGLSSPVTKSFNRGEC
# VH: B5 VH
# VL: B5 VL
# notes: IgG4 PAA; CD3 arm with F405L, R409K; also called PSMB346 x CD3B219
# B11: PS3B64 (bispecific antibody, human IgG4 S228P, kappa, F234A L235A)
# heavy: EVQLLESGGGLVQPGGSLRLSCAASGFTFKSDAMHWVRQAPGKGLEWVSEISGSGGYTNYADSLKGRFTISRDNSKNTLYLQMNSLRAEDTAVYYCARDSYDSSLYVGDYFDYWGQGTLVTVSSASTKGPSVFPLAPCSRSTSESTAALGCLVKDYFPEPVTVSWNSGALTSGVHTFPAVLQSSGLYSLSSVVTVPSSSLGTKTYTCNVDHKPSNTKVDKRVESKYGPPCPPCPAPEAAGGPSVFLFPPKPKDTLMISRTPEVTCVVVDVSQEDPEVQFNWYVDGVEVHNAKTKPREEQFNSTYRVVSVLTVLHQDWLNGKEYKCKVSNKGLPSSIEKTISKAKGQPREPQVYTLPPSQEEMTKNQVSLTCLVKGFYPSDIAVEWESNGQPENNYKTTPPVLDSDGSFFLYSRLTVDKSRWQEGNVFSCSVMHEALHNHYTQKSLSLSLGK
# light: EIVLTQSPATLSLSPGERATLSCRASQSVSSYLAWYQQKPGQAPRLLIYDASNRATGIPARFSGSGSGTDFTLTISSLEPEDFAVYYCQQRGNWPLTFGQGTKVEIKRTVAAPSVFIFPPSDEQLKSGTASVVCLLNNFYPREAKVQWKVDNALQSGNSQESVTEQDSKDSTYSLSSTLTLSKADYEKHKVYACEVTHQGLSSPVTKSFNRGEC
# VH: B5 VH
# VL: B5 VL
# notes: IgG4 PAA; CD3 arm with F405L, R409K; also called PSMB349 x CD3B219
# B12: PS3B61 (bispecific antibody, human IgG4 S228P, kappa, F234A L235A)
# heavy: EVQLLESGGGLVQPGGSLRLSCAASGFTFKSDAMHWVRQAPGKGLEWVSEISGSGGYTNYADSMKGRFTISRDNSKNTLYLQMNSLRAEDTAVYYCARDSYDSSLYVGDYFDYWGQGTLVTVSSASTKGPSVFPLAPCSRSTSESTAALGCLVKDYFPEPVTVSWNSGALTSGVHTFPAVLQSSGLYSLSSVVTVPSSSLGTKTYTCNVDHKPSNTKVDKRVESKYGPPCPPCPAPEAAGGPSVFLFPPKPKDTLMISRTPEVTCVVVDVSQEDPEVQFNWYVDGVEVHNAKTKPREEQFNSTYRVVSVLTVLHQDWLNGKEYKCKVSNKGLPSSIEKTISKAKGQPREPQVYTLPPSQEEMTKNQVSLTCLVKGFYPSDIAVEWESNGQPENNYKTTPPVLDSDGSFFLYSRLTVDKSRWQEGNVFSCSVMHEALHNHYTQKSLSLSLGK
# light: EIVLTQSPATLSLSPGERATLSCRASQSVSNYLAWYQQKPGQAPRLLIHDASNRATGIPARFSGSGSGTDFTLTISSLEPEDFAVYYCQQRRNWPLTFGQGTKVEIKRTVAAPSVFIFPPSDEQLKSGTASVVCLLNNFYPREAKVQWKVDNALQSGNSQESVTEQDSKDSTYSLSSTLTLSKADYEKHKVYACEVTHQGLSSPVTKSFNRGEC
# VH: B5 VH
# VL: B5 VL
# notes: IgG4 PAA; CD3 arm with F405L, R409K; also called PSMB345 x CD3B219
# B13: PS3B73 (bispecific antibody, human IgG4 S228P, kappa, F234A L235A)
# heavy: not shown
# light: not shown
# VH: B5 VH
# VL: B5 VL
# notes: IgG4 PAA; CD3 arm with F405L, R409K; also called PSMB361 x CD3B219
# B14: PS3B70 (bispecific antibody, human IgG4 S228P, kappa, F234A L235A)
# heavy: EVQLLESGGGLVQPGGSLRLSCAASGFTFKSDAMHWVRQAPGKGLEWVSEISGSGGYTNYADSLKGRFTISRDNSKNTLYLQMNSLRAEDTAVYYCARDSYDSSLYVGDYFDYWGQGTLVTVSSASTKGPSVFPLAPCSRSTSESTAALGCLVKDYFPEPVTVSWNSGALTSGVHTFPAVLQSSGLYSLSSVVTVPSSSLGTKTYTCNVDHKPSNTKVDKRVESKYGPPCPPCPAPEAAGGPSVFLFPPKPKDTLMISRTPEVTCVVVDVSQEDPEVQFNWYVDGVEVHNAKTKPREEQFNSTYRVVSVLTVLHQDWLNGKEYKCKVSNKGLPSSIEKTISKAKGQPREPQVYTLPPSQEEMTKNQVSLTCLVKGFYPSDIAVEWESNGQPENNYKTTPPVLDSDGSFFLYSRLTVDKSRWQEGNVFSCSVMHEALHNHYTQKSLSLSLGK
# light: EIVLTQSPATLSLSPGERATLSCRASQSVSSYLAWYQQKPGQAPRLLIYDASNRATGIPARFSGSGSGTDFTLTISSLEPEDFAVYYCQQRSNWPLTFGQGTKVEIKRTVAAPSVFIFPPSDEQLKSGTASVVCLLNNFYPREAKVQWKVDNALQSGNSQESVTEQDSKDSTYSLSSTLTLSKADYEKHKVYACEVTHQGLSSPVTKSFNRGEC
# VH: B5 VH
# VL: B5 VL
# notes: IgG4 PAA; CD3 arm with F405L, R409K; also called PSMB358 x CD3B219
# B15: PS3B74 (bispecific antibody, human IgG4 S228P, kappa, F234A L235A)
# heavy: not shown
# light: not shown
# VH: B5 VH
# VL: B5 VL
# notes: IgG4 PAA; CD3 arm with F405L, R409K; also called PSMB362 x CD3B219
# B16: TMEB674 (antibody, human IgG4 S228P, kappa, F234A L235A, V domains shown)
# VH: VQLLESGGGLVQPPGGSLRLSCAASGFTFSSYSMSWVRQAPGKGLEWVSVISGGGSFTSYADSVKGRFTISRDNSNNTLYLQMSSLRAEDTAFYYCARMPLNSPHDCWGQGTLVTVSS
# VL: AIQMTQSPSSLSASVGDRVTITCRASQGIRNDLGWYQQKPGKAPKLLIYAASSLQSGVPSRFSGSGSGTDFTLTISSLQPEDFATYYCLQDYNYSLTFGGGTKVEIRR
# notes: IgG4 PAA anti-TMEFF2; also called TMEH410/TMEL126
# B17: TMEB675 (antibody, human IgG4 S228P, kappa, F234A L235A, V domains shown)
# VH: EVQLLESGGGLVQRGGSLRPSCAASGFTFSSYSMSWVRQAPGKGLEWVSVISGSGGFTDYADSVKGRFTISRDNSKNTLYLHMNSLRAEDTAVYYCARMPLNSPHDYWGQGTLVTVSS
# VL: B16 VL with S95A, R107K
# notes: IgG4 PAA anti-TMEFF2; also called TMEH411/TMEL127
# B18: TMEB565 (antibody, human IgG4 S228P, kappa, F234A L235A, V domains shown)
# VH: QVQLVQSGAEVKKPGSSVKVSCKASGGTFSSYYISWVRQAPGQGLEWMGGIIPISGRANYAQKFQGRVTITADESTSTAYMELSSLRSEDTAVYYCARDGYSSGRSTTYAFDYWGQGTLVTVSS
# VL: EIVLTQSPGTLSLSPGERATLSCRASQSVATYYLAWYQQKPGQAPRLLIYGASSRATGIPDRFSGSGSGTDFTLTISRLEPEDFAVYYCQQYGYNPITFGQGTKVEIKR
# notes: IgG4 PAA anti-TMEFF2; also called TMEH396/TMEL111
# B19: TMEB570 (antibody, human IgG4 S228P, kappa, F234A L235A, V domains shown)
# VH: B18 VH
# VL: B18 VL with A30S, S54Y, Y94H, N95S
# notes: IgG4 PAA anti-TMEFF2; also called TMEH396/TMEL112
# Target: T3, human PSMA on cells (LNCaP) (human, UniProt Q04609 1-750)
# T3 construct: whole, on cells; also called LNCaP cells
# Assay: flow cytometry cell binding assay on LNCaP cells
# Experimental: (§1) PSMA×CD3 bispecific antibodies were tested for binding to PSMA positive cell line, LNCAP, to PSMA negative cell line, PC3. To assess the binding capabilities of the PSMA bispecific antibodies, the cell-binding assay was utilized (described previously). Bispecific antibodies were normalized for protein concentration and then incubated with the same number of cells expressing either human or cyno PSMA. The MFI at each concentration was collected by flow cytometry and plotted as a function of concentration. Data was transformed via log 10 and then plotted. Nonlinear regression of binding curves was done to determine EC50s.
# T3 sequence (Q04609 whole entry): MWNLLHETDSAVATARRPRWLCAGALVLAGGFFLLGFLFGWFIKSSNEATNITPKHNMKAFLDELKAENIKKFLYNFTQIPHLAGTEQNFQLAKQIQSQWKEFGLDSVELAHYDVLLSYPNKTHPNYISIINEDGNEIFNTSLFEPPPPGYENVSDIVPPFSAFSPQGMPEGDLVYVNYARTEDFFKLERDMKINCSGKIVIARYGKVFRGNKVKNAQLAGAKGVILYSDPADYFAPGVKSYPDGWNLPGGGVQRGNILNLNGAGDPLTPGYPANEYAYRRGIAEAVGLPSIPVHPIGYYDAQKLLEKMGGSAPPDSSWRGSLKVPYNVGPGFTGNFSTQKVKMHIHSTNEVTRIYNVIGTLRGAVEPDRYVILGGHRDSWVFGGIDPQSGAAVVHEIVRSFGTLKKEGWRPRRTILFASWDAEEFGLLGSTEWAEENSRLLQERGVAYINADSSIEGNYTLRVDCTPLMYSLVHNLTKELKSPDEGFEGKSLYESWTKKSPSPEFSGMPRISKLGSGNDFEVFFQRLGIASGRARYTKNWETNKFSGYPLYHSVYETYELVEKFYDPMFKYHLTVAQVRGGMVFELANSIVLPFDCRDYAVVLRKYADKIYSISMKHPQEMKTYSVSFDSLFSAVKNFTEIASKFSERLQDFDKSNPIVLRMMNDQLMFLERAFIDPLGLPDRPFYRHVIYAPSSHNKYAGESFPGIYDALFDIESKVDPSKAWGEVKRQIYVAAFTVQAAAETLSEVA
Binder,binding result,EC50 (read off the curve)
B1,binds,–
B2,binds,–
B3,binds,–
B4,–,~6 nM

# Target: T3, human PSMA on cells (LNCaP)
# Assay: flow cytometry cell binding assay on LNCaP cells
# Remark: another data set of the same source
# Experimental: as §1
Binder,binding result,EC50 (read off the curve)
B5,binds,–
B6,–,~2 nM
B7,–,~8 nM
B8,binds,–
B9,binds,–
B10,binds,–
B11,binds,–
B12,binds,–
B13,binds,–
B14,binds,–
B15,binds,–
B4,–,~6 nM

# Target: T1, TMEW1 (TMEFF2-FL-ECD-His-Avitag)
# Assay: ProteOn SPR, mAb captured on anti-human Fc, TMEFF2 as analyte
# Experimental: (§2) The binding of anti-TMEFF2 mAbs to the ECD and the membrane proximal region of human TMEFF2 was measured by ProteOn SPR (Bio-Rad). The purified mAbs (diluted to a final concentration of 1 μg/ml in PBST) were used as ligands in the assay and were immobilized through Fc capture to Goat Anti-Human (GAH) IgG Fc. For amine coupling of the GAH IgG Fc, a 1:1 mixture of EDC (40 mM) and NHS (10 mM) were mixed immediately prior to injection to activate the chip surface and injected in the vertical orientation. GAH-Fc (at 30 μg/ml) antibody in acetate buffer (pH 5.0) was then flowed over the surface for 300 seconds at 30 μl/min in the vertical orientation. Any remaining reactive carboxyl groups in the surface were subsequently deactivated by injecting 1M Ethanolamine (pH 8.5) in the same orientation. The antibodies were used at a concentration of 1 μg/ml for immobilization. The antibodies were flowed over the surface in the horizontal direction. Human TMEFF2 ECD or the membrane proximal region in 3-fold dilution series of 5 concentrations (highest concentration ranging from 100-600 nM) was flowed in as analyte in the vertical orientation to bind to the captured molecules. A buffer sample was also injected in the 6th channel in the vertical direction to monitor any drift in the baseline signal. The association and dissociation phases for all concentrations were monitored over 3 minutes and 30 (or 15) minutes respectively, at a flow rate of 100 μL/min. The binding surface was regenerated for the next interaction cycle using an 18 second pulse of 0.8% phosphoric acid to remove the bound antigen. The raw data were processed by subtracting two sets of reference data from the response data: 1) the inter-spot signals to correct for the non-specific interactions between the antigen and the empty chip surface; 2) the empty channel signals (where only PBST was flowed over the chip) to correct for non-specific baseline drift.
Binder,Kd,koff,kon
B16,0.1 nM,0.000162 s⁻¹,2.01e+06 M⁻¹ s⁻¹
B17,0.1 nM,0.000153 s⁻¹,2.65e+06 M⁻¹ s⁻¹
B18,0.02 nM,9.13e-06 s⁻¹,384000 M⁻¹ s⁻¹
B19,0.11 nM,5.13e-05 s⁻¹,464000 M⁻¹ s⁻¹

# Target: T2, TMEW19 (spTMEFF2(230-320)G3S-H6)
# Assay: as above
# Experimental: as §2
Binder,Kd,koff,kon
B16,0.2 nM,0.000175 s⁻¹,837000 M⁻¹ s⁻¹
B17,0.2 nM,0.000158 s⁻¹,972000 M⁻¹ s⁻¹
B18,0.01 nM,6.39e-06 s⁻¹,777000 M⁻¹ s⁻¹
B19,0.06 nM,4.67e-05 s⁻¹,762000 M⁻¹ s⁻¹
